Assay [1] deals with T1, digoxigenated protein Dig-BP4.
T1 chain: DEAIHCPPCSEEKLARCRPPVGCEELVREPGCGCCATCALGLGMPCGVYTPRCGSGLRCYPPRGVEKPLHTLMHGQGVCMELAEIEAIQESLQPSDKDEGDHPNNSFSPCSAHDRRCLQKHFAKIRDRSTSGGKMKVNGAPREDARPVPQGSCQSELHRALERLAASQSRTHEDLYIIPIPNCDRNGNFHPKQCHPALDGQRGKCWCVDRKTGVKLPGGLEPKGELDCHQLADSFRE
The experiment in a line: SPR (Biacore), antibody captured by anti-human IgG, DIG-BP4 injected. (In general: SPR reads the build-up and loss of mass on a sensor chip optically.)
Method: (§1) Surfaces were blocked with an injection of 1 M ethanolamine/HCl pH 8.5. […] To evaluate the functionality of the recombinant <Dig> derivatives, binding of the recombinant hu<Dig> modules, incl.
(§2) Anti-mouse IgG antibody was immobilized on the surface of a CM5 biosensor chip in the same fashion as described above. […] The samples to be analyzed were diluted in HBS-P (10 mM HEPES, pH 7.4, 150 mM NaCl, 0.005% Surfactant P20) and injected at a flow rate of 5 μl/min. The contact time (association phase) was 3 min for the antibodies at a concentration between 1 and 5 nM. […] The contact time (association phase) was 3 min, the dissociation time (washing with running buffer) 5 min for each molecule at a flow rate of 30 μl/min. All interactions were performed at 25° C. (standard temperature). […] Signals were detected at a rate of one signal per second.

For assay [2] the target is unchanged. The experiment in a line: SPR (Biacore), antibody captured by anti-mouse IgG, DIG-BP4 injected.
Method: as §1, §2

B1: humanized <Dig> IgG (antibody, V domains shown)
VH: QVQLVESGGGLVKPGGSLRLSCAASGFTFSDYAMSWIRQAPGKGLEWVSSINIGATYIYYADSVKGRFTISRDNAKNSLYLQMNSLRAEDTAVYYCARPGSPYEYDKAYYSMAYWGQGTTVTVSS
VL: DIQMTQSPSSLSASVGDRVTITCRASQDIKNYLNWYQQKPGKAPKLLIYYSSTLLSGVPSRFSGSGSGTDFTLTISSLQPEDFATYYCQQSITLPPTFGGGTKVEIKR
notes: also called hu<Dig> IgG; DIGHu2
B1: the Kd in assay [1] is under 0.076 nM.

B2: murine <Dig> IgG1 kappa from mouse hybridoma clone 19-11 (antibody, V domains shown)
VH: EVQLVESGGGLVKPGGSLKLSCAVSGFTFSDYAMSWIRQTPENRLEWVASINIGATYAYYPDSVKGRFTISRDNAKNTLFLQMSSLGSEDTAMYYCARPGSPYEYDKAYYSMAYWGPGTSVTVSS
VL: DVQMTQSTSSLSASLGDRVTISCRASQDIKNYLNWYQQKPGGTVKLLIYYSSTLLSGVPSRFSGRGSGTDFSLTITNLEREDIATYFCQQSITLPPTFGGGTKLEIK
notes: also called murine DIG-IgG 19-11; mu<Dig> 19-11
In turn, B2 gave an equilibrium dissociation constant (Kd) in assay [2] of 0.033 nM.

A word on the Kd: it is a measure of binding affinity in units of concentration. A higher Kd goes with lower affinity.

For the origin of these results see patent US20130280279A1 (Hoffmann-La Roche, published 2013).
